Assay results as given in patent US10808017B2, “Ubiquitin variants and uses therof as 53BP1 inhibitors” (The Governing Council of the University of Toronto, priority 2016, dated 2020).

How the values were obtained:
[1] = tested on: MMEJ in U2OS EJ2-GFP cells; assay: EJ2-GFP reporter assay for MMEJ; assay type: cell-based; details: GFP-positive cells 48 h post-transfection, N=4
Method: FIG. 8 (Related to FIG. 3.) FIG. 8A, Immunoblots of whole cell lysates prepared from U2OS DR-GFP cells transfected with vectors expressing Flag-tagged i53, its DM mutant or an empty vector along with an I-SceI expression vector and probed with the indicated antibodies. FIG. 8B, U2OS DR-GFP cells were transfected with the vectors expressing Flag-tagged i53 or the DM mutant along with an I-SceI expression vector. Cells were treated either with DMSO (−) or 1 μM SCR7 (+). The percentage of GFP-positive cells was determined 48 h post-transfection for each condition and was normalized to the DM condition (mean±s.d., N=4). FIG. 8C, Control immunoblot of the experiment shown in (b). FIG. 8D, Immunoblots of whole cell lysates prepared from U2OS DR-GFP cells transfected with the indicated siRNAs along with an I-Scel expression vector and probed with the indicated antibodies. […] The percentage of GFP-positive cells was determined 48 h post-transfection for each condition and was normalized to the empty vector condition (mean±s.d., N=4). […]
The direct repeat (DR)-GFP assay to measure the frequency of HR and the strand annealing EJ2-GFP assay to measure the frequency of MMEJ were performed as previously described. […] 48 h post-plasmid transfection, the cells were trypsinized and the percentage of GFP-expressing cells was analyzed using the BD FACSCalibur flow cytometer.

RPL29 = biological target: T1, RPL29 (Homo sapiens, UniProt P47914); assay: Flag IP-MS of i53/i53-DM baits: prey RPL29; assay type: binding; details: 293T Flp-In/T-Rex extracts, LC-MS/MS, one column per replicate IP
T1 construct: endogenous in cells; host or cells: HEK293 Flp-In/T-REx cells
Method: (§1) Following immunoprecipitation of Flag-tagged i53 and i-53-DM from HEK293 Flp-In/T-REx cells, peptides were identified using LC-MS/MS. Proteins were digested in solution with trypsin (Sigma, T7575-1KT) and dried to completeness. For LC-MS/MS analysis, peptides were reconstituted in 5% formic acid and loaded onto a 12-15 cm fused silica column with pulled tip packed in-house with 3.5 μm Zorbax C18 (Agilent Technologies, Calif., USA).
(§2) i53 and i53-DM precipitates were analyzed using an LTQ (Thermo Scientific) coupled to an Agilent 1100 Series HPLC (Agilent Technologies). Peptides were eluted from the column using a 90 min period cycle with a linear gradient from 0% to 40% ACN in 0.1% formic acid. Tandem MS spectra were acquired in a data-dependent mode for the top 5 (LTQ) most abundant ions using collision-induced dissociation. Acquired spectra were searched against the human Refseq_V53 database using Mascot (Matrix Science).
(§3) 293T Flp-In/T-Rex cell lines were generated that expressed Flag-tagged i53 or i53-DM under the control of a tetracycline-inducible promoter as previously described. Nine IP-MS experiments were analyzed (3 biological replicate IPs each for control i53- and i53-DM expressing cell lines). The interacting proteins were identified by MASCOT to identify high-confidence interactors for i53. […]

RPL24 = biological target: T2, RPL24 (Homo sapiens, UniProt P83731); assay: Flag IP-MS of i53/i53-DM baits: prey RPL24; assay type: binding; details: 293T Flp-In/T-Rex extracts, LC-MS/MS, one column per replicate IP
T2 construct: endogenous in cells; host or cells: HEK293 Flp-In/T-REx
Method: as §1, §2, §3

53BP1 = biological target: T3, 53BP1 (Homo sapiens, UniProt Q12888); assay: Flag co-immunoprecipitation from 293T cells; assay type: binding; details: Flag IP from transfected 293T cell extracts, immunoblot
T3 construct: endogenous in cells; host or cells: 293T
T3 sequence (Q12888 whole entry): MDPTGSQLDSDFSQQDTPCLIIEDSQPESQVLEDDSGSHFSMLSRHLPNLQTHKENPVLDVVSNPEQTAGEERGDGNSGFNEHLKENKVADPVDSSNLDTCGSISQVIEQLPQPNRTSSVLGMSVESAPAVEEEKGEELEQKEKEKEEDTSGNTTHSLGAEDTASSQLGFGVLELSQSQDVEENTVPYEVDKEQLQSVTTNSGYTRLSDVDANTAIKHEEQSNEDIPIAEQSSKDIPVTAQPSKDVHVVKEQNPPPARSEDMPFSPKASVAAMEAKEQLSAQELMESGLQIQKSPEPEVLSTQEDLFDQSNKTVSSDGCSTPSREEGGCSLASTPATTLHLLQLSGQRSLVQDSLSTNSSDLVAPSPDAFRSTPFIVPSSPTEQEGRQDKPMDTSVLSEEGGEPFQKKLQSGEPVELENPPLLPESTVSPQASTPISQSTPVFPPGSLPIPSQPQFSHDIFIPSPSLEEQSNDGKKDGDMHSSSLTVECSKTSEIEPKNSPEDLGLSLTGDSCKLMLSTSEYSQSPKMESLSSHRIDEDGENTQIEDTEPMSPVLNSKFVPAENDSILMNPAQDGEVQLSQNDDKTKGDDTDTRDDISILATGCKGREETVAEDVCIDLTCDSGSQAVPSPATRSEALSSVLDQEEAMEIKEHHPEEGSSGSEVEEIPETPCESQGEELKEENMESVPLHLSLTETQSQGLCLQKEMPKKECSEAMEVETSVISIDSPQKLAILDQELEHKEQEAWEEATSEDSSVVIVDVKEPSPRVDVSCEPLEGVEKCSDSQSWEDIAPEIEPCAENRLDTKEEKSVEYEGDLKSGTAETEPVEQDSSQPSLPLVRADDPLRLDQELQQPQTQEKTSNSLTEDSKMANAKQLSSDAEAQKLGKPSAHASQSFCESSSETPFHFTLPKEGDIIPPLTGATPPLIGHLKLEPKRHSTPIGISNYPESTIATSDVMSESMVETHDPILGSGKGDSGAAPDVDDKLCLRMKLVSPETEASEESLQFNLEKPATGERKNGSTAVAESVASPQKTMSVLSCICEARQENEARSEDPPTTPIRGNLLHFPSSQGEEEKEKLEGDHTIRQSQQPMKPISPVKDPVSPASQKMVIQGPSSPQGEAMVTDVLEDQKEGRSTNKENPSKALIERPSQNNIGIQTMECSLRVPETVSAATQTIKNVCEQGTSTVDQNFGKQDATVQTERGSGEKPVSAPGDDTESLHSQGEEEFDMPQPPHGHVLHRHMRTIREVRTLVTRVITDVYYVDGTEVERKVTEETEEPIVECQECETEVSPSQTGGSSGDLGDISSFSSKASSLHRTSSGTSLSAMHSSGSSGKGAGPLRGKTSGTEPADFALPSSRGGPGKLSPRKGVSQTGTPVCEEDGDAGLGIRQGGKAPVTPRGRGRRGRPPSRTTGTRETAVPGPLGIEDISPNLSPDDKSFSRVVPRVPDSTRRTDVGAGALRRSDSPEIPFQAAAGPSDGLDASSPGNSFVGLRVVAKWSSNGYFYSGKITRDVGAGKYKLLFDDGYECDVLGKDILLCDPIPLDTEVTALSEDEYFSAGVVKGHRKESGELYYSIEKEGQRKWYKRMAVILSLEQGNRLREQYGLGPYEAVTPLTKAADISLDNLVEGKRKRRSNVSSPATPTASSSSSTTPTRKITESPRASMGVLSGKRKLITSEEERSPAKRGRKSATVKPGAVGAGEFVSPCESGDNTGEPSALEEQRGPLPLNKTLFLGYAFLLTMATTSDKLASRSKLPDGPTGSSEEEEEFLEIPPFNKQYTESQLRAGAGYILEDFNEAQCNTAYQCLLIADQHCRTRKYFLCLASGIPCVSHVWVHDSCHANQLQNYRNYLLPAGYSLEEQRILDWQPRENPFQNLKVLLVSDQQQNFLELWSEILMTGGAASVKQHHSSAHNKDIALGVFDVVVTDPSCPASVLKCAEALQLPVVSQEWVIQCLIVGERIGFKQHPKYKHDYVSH
Method: FIG. 3. The i53 protein inhibits 53BP1. FIG. 3A-B, U2OS cells were transfected with vectors expressing i53, its 53BP1-binding deficient mutant (DM) or an empty vector (EV) control. Cells were then X-irradiated with a 10 Gy dose and processed for immunofluorescence with the indicated antibodies 1 h post-irradiation (IR). DAPI staining (not shown) was used to delineate the outline (dashed lines) of the cell nuclei. The region in the magnified inset is indicated with a square. Quantitation of the experiment is shown in panel (a) and data is indicated as the mean±s.e.m (N=3), whereas in (b) representative micrographs are shown. Arrowheads indicate Flag-positive cells. FIG. 3C, Parental or 53BP1ΔU2OS cells transfected with vectors expressing i53, the DM mutant or an empty vector (EV) control were irradiated (10 Gy) 1 h before being processed for immunofluorescence. Cell cycle stage was assessed by Cyclin A staining. The data is presented as the mean±s.e.m.; N=3. FIG. 3D, Immunoprecipitation (IP) of Flag-tagged proteins from extracts prepared from 293T cells transfected with vectors expressing Flag-i53 or the i53-DM mutant. Proteins were separated by SDS-PAGE and immunoblotted (IB) for Flag and 53BP1.
293T cells were transfected with 10 μg of pcDNA3-Flag-i53-derived plasmids using polyethylenimine (PEI). […]

Row | Substance | Increase in MMEJ over the empty vector [1] | Total peptides, RPL29 (RPL29) | Total peptides, RPL24 (RPL24) | Retrieval of 53BP1 in co-immunoprecipitation (53BP1)
1 | i53-DM: 53BP1-binding deficient mutant of i53 (P69L, L70V) | 1.3+/−0.1 fold | 3 | 5 | 
2 | i53: UbvG08 with C-terminal di-glycine removed and I44A mutation; genetically encoded inhibitor of 53BP1 | 1.4+/−0.15 fold |  | 5 | efficiently retrieved 53BP1
